Test results as given in patent publication US20090214583A1 (GOVERNMENT OF THE UNITED STATES OF AMERICA AS REPRESENTED …, published 2009).

Target: HLA-DRβ1*13 (human)
Experiment: cell-based or functional assay

KQIINMWQEIGKAMYA [Peptide 53]
proliferation of KT9 cells: ≤ 2 fold
